{"source": "the supplement of paper PMC9112550", "about": "“Optimization of the antimicrobial peptide Bac7 by deep mutational scanning” (BMC Biology, 2022);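 also: peptides expressed intracellularly from a pBAD plasmid library in pooled LB shake-flask culture, induced with 0.3% L-arabinose, DNA abundance read by NGS, three biological replicates, DESeq2 with apeglm shrinkage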"}
{"system": "Escherichia coli TOP10", "test": "shrunken log2 fold change of peptide-encoding DNA abundance (4.5 h post-induction vs induction); higher = less antimicrobial activity (less host growth inhibition)", "conditions": "time post-induction: 4.5 h; library: site-saturation at positions 5, 18, 19, 20"}
{"sequence": "RRIRCRPPRLPRPRPRPAVMPRP", "shrunken log2 fold change": 0.067}
{"sequence": "RRIRRRPPRLPRPRPRPLQFPRP", "shrunken log2 fold change": 0.313}
{"sequence": "RRIRIRPPRLPRPRPRPFHRPRP", "shrunken log2 fold change": -0.152}
{"sequence": "RRIRYRPPRLPRPRPRPALRPRP", "shrunken log2 fold change": -0.0531}
{"sequence": "RRIRHRPPRLPRPRPRPHTDPRP", "shrunken log2 fold change": -0.212}
{"sequence": "RRIRFRPPRLPRPRPRPVMYPRP", "shrunken log2 fold change": -0.195}
{"sequence": "RRIRIRPPRLPRPRPRPPMMPRP", "shrunken log2 fold change": 0.568}
{"sequence": "RRIRSRPPRLPRPRPRPRMSPRP", "shrunken log2 fold change": 0.0167}
{"sequence": "RRIRGRPPRLPRPRPRPHVHPRP", "shrunken log2 fold change": -0.332}
{"sequence": "RRIRARPPRLPRPRPRPLCQPRP", "shrunken log2 fold change": 0.42}
{"sequence": "RRIRHRPPRLPRPRPRPWLVPRP", "shrunken log2 fold change": -0.0872}
{"sequence": "RRIRFRPPRLPRPRPRPVHLPRP", "shrunken log2 fold change": -0.0117}
{"sequence": "RRIRWRPPRLPRPRPRPCCHPRP", "shrunken log2 fold change": -0.169}
{"sequence": "RRIRGRPPRLPRPRPRPALRPRP", "shrunken log2 fold change": 0.991}
{"sequence": "RRIRYRPPRLPRPRPRPADLPRP", "shrunken log2 fold change": -0.00419}
{"sequence": "RRIRQRPPRLPRPRPRPKCYPRP", "shrunken log2 fold change": -0.234}
{"sequence": "RRIRYRPPRLPRPRPRPADFPRP", "shrunken log2 fold change": -0.0123}
{"sequence": "RRIRERPPRLPRPRPRPNSLPRP", "shrunken log2 fold change": 0.0427}
{"sequence": "RRIRFRPPRLPRPRPRPQEPPRP", "shrunken log2 fold change": 0.436}
{"sequence": "RRIRSRPPRLPRPRPRPGCEPRP", "shrunken log2 fold change": 0.145}
{"sequence": "RRIRARPPRLPRPRPRPMVGPRP", "shrunken log2 fold change": 0.548}
{"sequence": "RRIRCRPPRLPRPRPRPTLVPRP", "shrunken log2 fold change": 0.12}
{"sequence": "RRIRVRPPRLPRPRPRPLCYPRP", "shrunken log2 fold change": -0.4}
{"sequence": "RRIRHRPPRLPRPRPRPVIDPRP", "shrunken log2 fold change": -0.395}
{"sequence": "RRIRQRPPRLPRPRPRPCTWPRP", "shrunken log2 fold change": -0.464}
{"sequence": "RRIRSRPPRLPRPRPRPNDNPRP", "shrunken log2 fold change": -0.57}
{"sequence": "RRIRVRPPRLPRPRPRPMVDPRP", "shrunken log2 fold change": -0.0954}
{"sequence": "RRIRNRPPRLPRPRPRPSHCPRP", "shrunken log2 fold change": -0.801}
{"sequence": "RRIRERPPRLPRPRPRPRHVPRP", "shrunken log2 fold change": 0.0784}
{"sequence": "RRIRPRPPRLPRPRPRPHPEPRP", "shrunken log2 fold change": 0.203}
{"sequence": "RRIRERPPRLPRPRPRPILCPRP", "shrunken log2 fold change": -0.0244}
{"sequence": "RRIRDRPPRLPRPRPRPYMQPRP", "shrunken log2 fold change": -0.0171}
{"sequence": "RRIRSRPPRLPRPRPRPHHRPRP", "shrunken log2 fold change": -0.43}
{"sequence": "RRIRWRPPRLPRPRPRPILHPRP", "shrunken log2 fold change": 0.0591}
{"sequence": "RRIRMRPPRLPRPRPRPNEGPRP", "shrunken log2 fold change": 0.137}
{"sequence": "RRIRYRPPRLPRPRPRPVRGPRP", "shrunken log2 fold change": 0.393}
{"sequence": "RRIRYRPPRLPRPRPRPPHAPRP", "shrunken log2 fold change": -0.0606}
{"sequence": "RRIRFRPPRLPRPRPRPVAKPRP", "shrunken log2 fold change": -0.0163}
{"sequence": "RRIRSRPPRLPRPRPRPGFIPRP", "shrunken log2 fold change": -0.205}
{"sequence": "RRIRCRPPRLPRPRPRPLYLPRP", "shrunken log2 fold change": -0.493}
{"sequence": "RRIRDRPPRLPRPRPRPSLRPRP", "shrunken log2 fold change": 0.188}
{"sequence": "RRIRHRPPRLPRPRPRPHVCPRP", "shrunken log2 fold change": 0.00854}
{"sequence": "RRIRRRPPRLPRPRPRPLAYPRP", "shrunken log2 fold change": -0.00715}
{"sequence": "RRIRWRPPRLPRPRPRPRHPPRP", "shrunken log2 fold change": 0.382}
{"sequence": "RRIRARPPRLPRPRPRPNARPRP", "shrunken log2 fold change": 0.124}
{"sequence": "RRIRGRPPRLPRPRPRPLFLPRP", "shrunken log2 fold change": 0.0673}
{"sequence": "RRIRWRPPRLPRPRPRPWTWPRP", "shrunken log2 fold change": 0.0111}
{"sequence": "RRIRERPPRLPRPRPRPSYCPRP", "shrunken log2 fold change": -0.715}
{"sequence": "RRIRARPPRLPRPRPRPPSDPRP", "shrunken log2 fold change": 0.705}
{"sequence": "RRIRMRPPRLPRPRPRPGKTPRP", "shrunken log2 fold change": 0.769}
{"sequence": "RRIRVRPPRLPRPRPRPINEPRP", "shrunken log2 fold change": -0.3}
{"sequence": "RRIRFRPPRLPRPRPRPPISPRP", "shrunken log2 fold change": -0.239}
{"sequence": "RRIRNRPPRLPRPRPRPEVMPRP", "shrunken log2 fold change": 0.0307}
{"sequence": "RRIRIRPPRLPRPRPRPIVMPRP", "shrunken log2 fold change": -0.0726}
{"sequence": "RRIRPRPPRLPRPRPRPDVCPRP", "shrunken log2 fold change": -0.00807}
{"sequence": "RRIRTRPPRLPRPRPRPHRAPRP", "shrunken log2 fold change": 0.0171}
{"sequence": "RRIRKRPPRLPRPRPRPHIEPRP", "shrunken log2 fold change": -0.891}
{"sequence": "RRIRMRPPRLPRPRPRPPQLPRP", "shrunken log2 fold change": 0.279}
{"sequence": "RRIRRRPPRLPRPRPRPCQNPRP", "shrunken log2 fold change": -0.0482}
{"sequence": "RRIRARPPRLPRPRPRPLSMPRP", "shrunken log2 fold change": -0.129}
{"sequence": "RRIRCRPPRLPRPRPRPFNEPRP", "shrunken log2 fold change": -0.799}
{"sequence": "RRIRVRPPRLPRPRPRPFWYPRP", "shrunken log2 fold change": -0.308}
{"sequence": "RRIRMRPPRLPRPRPRPHWLPRP", "shrunken log2 fold change": -0.183}
{"sequence": "RRIRERPPRLPRPRPRPMEYPRP", "shrunken log2 fold change": -0.00776}
{"sequence": "RRIRLRPPRLPRPRPRPFTNPRP", "shrunken log2 fold change": 0.0104}
{"sequence": "RRIRWRPPRLPRPRPRPGLPPRP", "shrunken log2 fold change": 0.288}
{"sequence": "RRIRIRPPRLPRPRPRPMGFPRP", "shrunken log2 fold change": 0.0523}
{"sequence": "RRIRTRPPRLPRPRPRPNAWPRP", "shrunken log2 fold change": 0.0447}
{"sequence": "RRIRSRPPRLPRPRPRPGFPPRP", "shrunken log2 fold change": -0.00277}
{"sequence": "RRIRIRPPRLPRPRPRPNDKPRP", "shrunken log2 fold change": -0.647}
{"sequence": "RRIRFRPPRLPRPRPRPGFRPRP", "shrunken log2 fold change": 0.0855}
{"sequence": "RRIRGRPPRLPRPRPRPKHGPRP", "shrunken log2 fold change": 0.699}
